Key:
[1] = anti-GFP Western band intensity, CHO membranes; settings: glycan lost; control: wild-type OCTN2
[2] = confocal GFP vs Bodipy-ceramide, MetaMorph; settings: glycan lost; control: wild-type OCTN2
[3] = Michaelis-Menten kinetics after 16 h tunicamycin, CHO; settings: glycan lost; control: untreated cells
[4] = carnitine 0.5–100 µM uptake, Michaelis-Menten fit, CHO; settings: glycan lost; control: wild-type OCTN2

| Protein | expression_or_secretion [1] | localisation_or_trafficking, other: percent of transporters at plasma membrane [2] | other: kinetic parameters of carnitine transport [3] | other: Vmax of carnitine transport [4] |
| --- | --- | --- | --- | --- |
| OCTN2 carnitine transporter: N57/64/91Q (protein) parent chain: MRDYDEVTAFLGEWGPFQRLIFFLLSASIIPNGFTGLSSVFLIATPEHRCRVPDAANLSSAWRNHTVPLRLRDGREVPHSCRRYRLATIANFSALGLEPGRDVDLGQLEQESCLDGWEFSQDVYLSTIVTEWNLVCEDDWKAPLTISLFFVGVLLGSFISGQLSDRFGRKNVLFVTMGMQTGFSFLQIFSKNFEMFVVLFVLVGMGQISNYVAAFVLGTEILGKSVRIIFSTLGVCIFYAFGYMVLPLFAYFIRDWRMLLVALTMPGVLCVALWWFIPESPRWLISQGRFEEAEVIIRKAAKANGIVVPSTIFDPSELQDLSSKKQQSHNILDLLRTWNIRMVTIMSIMLWMTISVGYFGLSLDTPNLHGDIFVNCFLSAMVEVPAYVLAWLLLQYLPRRYSMATALFLGGSVLLFMQLVPPDLYYLATVLVMVGKFGVTAAFSMVYVYTAELYPTVVRNMGVGVSSTASRLGSILSPYFVYLGAYDRFLPYILMGSLTILTAILTLFLPESFGTPLPDTIDQMLRVKGMKHRKTPSHTRMLKDGQERPTILKSTAF | decreases | abolishes | – | – |
| OCTN2 carnitine transporter: tunicamycin (0.5 µg/ml) (protein) parent chain: MRDYDEVTAFLGEWGPFQRLIFFLLSASIIPNGFTGLSSVFLIATPEHRCRVPDAANLSSAWRNHTVPLRLRDGREVPHSCRRYRLATIANFSALGLEPGRDVDLGQLEQESCLDGWEFSQDVYLSTIVTEWNLVCEDDWKAPLTISLFFVGVLLGSFISGQLSDRFGRKNVLFVTMGMQTGFSFLQIFSKNFEMFVVLFVLVGMGQISNYVAAFVLGTEILGKSVRIIFSTLGVCIFYAFGYMVLPLFAYFIRDWRMLLVALTMPGVLCVALWWFIPESPRWLISQGRFEEAEVIIRKAAKANGIVVPSTIFDPSELQDLSSKKQQSHNILDLLRTWNIRMVTIMSIMLWMTISVGYFGLSLDTPNLHGDIFVNCFLSAMVEVPAYVLAWLLLQYLPRRYSMATALFLGGSVLLFMQLVPPDLYYLATVLVMVGKFGVTAAFSMVYVYTAELYPTVVRNMGVGVSSTASRLGSILSPYFVYLGAYDRFLPYILMGSLTILTAILTLFLPESFGTPLPDTIDQMLRVKGMKHRKTPSHTRMLKDGQERPTILKSTAF | – | – | no change | – |
| OCTN2 carnitine transporter: N57Q/N64Q (protein) parent chain: MRDYDEVTAFLGEWGPFQRLIFFLLSASIIPNGFTGLSSVFLIATPEHRCRVPDAANLSSAWRNHTVPLRLRDGREVPHSCRRYRLATIANFSALGLEPGRDVDLGQLEQESCLDGWEFSQDVYLSTIVTEWNLVCEDDWKAPLTISLFFVGVLLGSFISGQLSDRFGRKNVLFVTMGMQTGFSFLQIFSKNFEMFVVLFVLVGMGQISNYVAAFVLGTEILGKSVRIIFSTLGVCIFYAFGYMVLPLFAYFIRDWRMLLVALTMPGVLCVALWWFIPESPRWLISQGRFEEAEVIIRKAAKANGIVVPSTIFDPSELQDLSSKKQQSHNILDLLRTWNIRMVTIMSIMLWMTISVGYFGLSLDTPNLHGDIFVNCFLSAMVEVPAYVLAWLLLQYLPRRYSMATALFLGGSVLLFMQLVPPDLYYLATVLVMVGKFGVTAAFSMVYVYTAELYPTVVRNMGVGVSSTASRLGSILSPYFVYLGAYDRFLPYILMGSLTILTAILTLFLPESFGTPLPDTIDQMLRVKGMKHRKTPSHTRMLKDGQERPTILKSTAF | no change | – | – | – |
| OCTN2 carnitine transporter: N57/91Q (protein) parent chain: MRDYDEVTAFLGEWGPFQRLIFFLLSASIIPNGFTGLSSVFLIATPEHRCRVPDAANLSSAWRNHTVPLRLRDGREVPHSCRRYRLATIANFSALGLEPGRDVDLGQLEQESCLDGWEFSQDVYLSTIVTEWNLVCEDDWKAPLTISLFFVGVLLGSFISGQLSDRFGRKNVLFVTMGMQTGFSFLQIFSKNFEMFVVLFVLVGMGQISNYVAAFVLGTEILGKSVRIIFSTLGVCIFYAFGYMVLPLFAYFIRDWRMLLVALTMPGVLCVALWWFIPESPRWLISQGRFEEAEVIIRKAAKANGIVVPSTIFDPSELQDLSSKKQQSHNILDLLRTWNIRMVTIMSIMLWMTISVGYFGLSLDTPNLHGDIFVNCFLSAMVEVPAYVLAWLLLQYLPRRYSMATALFLGGSVLLFMQLVPPDLYYLATVLVMVGKFGVTAAFSMVYVYTAELYPTVVRNMGVGVSSTASRLGSILSPYFVYLGAYDRFLPYILMGSLTILTAILTLFLPESFGTPLPDTIDQMLRVKGMKHRKTPSHTRMLKDGQERPTILKSTAF | – | decreases | – | – |
| OCTN2 carnitine transporter: N64/91Q (protein) parent chain: MRDYDEVTAFLGEWGPFQRLIFFLLSASIIPNGFTGLSSVFLIATPEHRCRVPDAANLSSAWRNHTVPLRLRDGREVPHSCRRYRLATIANFSALGLEPGRDVDLGQLEQESCLDGWEFSQDVYLSTIVTEWNLVCEDDWKAPLTISLFFVGVLLGSFISGQLSDRFGRKNVLFVTMGMQTGFSFLQIFSKNFEMFVVLFVLVGMGQISNYVAAFVLGTEILGKSVRIIFSTLGVCIFYAFGYMVLPLFAYFIRDWRMLLVALTMPGVLCVALWWFIPESPRWLISQGRFEEAEVIIRKAAKANGIVVPSTIFDPSELQDLSSKKQQSHNILDLLRTWNIRMVTIMSIMLWMTISVGYFGLSLDTPNLHGDIFVNCFLSAMVEVPAYVLAWLLLQYLPRRYSMATALFLGGSVLLFMQLVPPDLYYLATVLVMVGKFGVTAAFSMVYVYTAELYPTVVRNMGVGVSSTASRLGSILSPYFVYLGAYDRFLPYILMGSLTILTAILTLFLPESFGTPLPDTIDQMLRVKGMKHRKTPSHTRMLKDGQERPTILKSTAF | decreases | decreases | – | decreases |

— publication PMC3026072
